The target of assay [1] is T1, 40S small ribosomal subunit (salt-washed, purified) (human, UniProt P23396 1-243). Nature of the assay: FP; 40S with eIF1 and eIF1A.
For assay [2], the target named is T1, 40S small ribosomal subunit …. Nature of the assay: FP.
Assay [3] has as its target 43S preinitiation complex (40S + eIFs 1, 1A, 5, 3j, eIF2-TC and eIF3) (human, UniProt P23396 1-243; P41567 1-113; P47813 1-144; P55010 1-431; O75822 1-258; P55884 …). Nature of the assay: FP.

The record followed here is article doi:10.1101/2024.05.01.592117 (2024).

B1: fluorescence-labeled Pdcd4-NTD (FL-Pdcd4-NTD, residues 1-156) (domain or fragment)
chain: MDVENEQILNVNPADPDNLSDSLFSGDEENAGTEEIKNEINGNWISASSINEARINAKAKRRLRKNSSRDSGRGDSVSDSGSDALRSGLTVPTSPKGRLLDRRSRSGKGRGLPKKGGAGGKGVWGTPGQVYDVEEVDVKDPNYDDDQENCVYETVV
modifications: fluorescein-5-maleimide on the single cysteine C150
On to B1, for which the Kd (commonly the constant that tells how readily two partners part at equilibrium) in assay [1] was 0.071 µM; in assay [2], around 0.005 µM; in assay [3] it was around 3 µM.
